Assay results published in patent US12356911B2, “Group of UDP-glycosyltransferase for catalyzing carbohydrate chain elongation and application thereof” (GSYNBIOT (SHANGHAI) CO., LTD, priority 2017, dated 2025).

What was measured:
Format in all cases: biochemical
[1] = In vitro transglycosylation at C-3, Rh2 as glycosyl acceptor, UDP-glucose as donor; conditions: crude enzyme (E. coli lysate supernatant); TLC, FIG. 13, FIG. 15
Description: (§1) Cell lysate of recombinant E. coli with empty vector pET28a was used as a control.

[2] = In vitro transglycosylation at C-3, Rd as glycosyl acceptor, UDP-xylose as donor; conditions: crude enzyme (E. coli lysate supernatant); TLC, FIG. 14
[3] = In vitro transglycosylation at C-20, Rd as glycosyl acceptor, UDP-glucose as donor; conditions: crude enzyme (E. coli lysate supernatant); TLC/HPLC, FIG. 2, 3, 11
Description: as §1

[4] = In vitro transglycosylation at C-20, CK as glycosyl acceptor, UDP-glucose as donor; conditions: crude enzyme (E. coli lysate supernatant); TLC/HPLC, FIG. 2, 3, 12, 16
Description: as §1
As shown in FIG. 16: Protopanaxadiol Ginsenoside CK is used as a glycosyl acceptor, and UDP-glucose is used as a glycosyl donor.

[5] = In vitro transglycosylation at C-20, CK as glycosyl acceptor, UDP-arabinose as donor; conditions: crude enzyme (E. coli lysate supernatant); TLC, FIG. 17
[6] = In vitro transglycosylation at C-6, Rg1 as glycosyl acceptor, UDP-xylose as donor; conditions: crude enzyme (E. coli lysate supernatant); TLC and HPLC, FIG. 7-9
[7] = In vitro transglycosylation at C-3, F2 as glycosyl acceptor, UDP-glucose as donor; conditions: crude enzyme (E. coli lysate supernatant)

B1: GT29-43: Ginseng UDP-glycosyltransferase, 442 amino acids, SEQ ID NO.: 96 (protein)
chain: MDNQKGRISIALLPFLAHGHISPFFELAKQLAKRNCNVFLCSTPINLSSIKDKDSSASIKLVELHLPSSPDLPPHYHTTNGLPSHLMLPLRNAFETAGPTFSEILKTLNPDLLIYDFNPSWAPEIASSHNIPAVYFLTTAAASSSIGLHAFKNPGEKYPFPDFYDNSNITPEPPSADNMKLLHDFIACFERSCDIILIKSFRELEGKYIDLLSTLSDKTLVPVGPLVQDPMGHNEDPKTEQIINWLDKMAESTVVFVCFGSEYFLSNEELEEVAIGLEISTVNFIWAVRLIEGEKKGILPEGFVQRVGDRGLVVEGWAPQARILGHSSTGGFVSHCGWSSIAESMKFGVPVIAMARHLDQPLNGKLAAEVGVGMEVVRDENGKYKREGIAEVIRKVVVEKSGEVIRRKARELSEKMKEKGEQEIDRALEELVQICKKKKDEQ
modifications: Panax ginseng
product formation from Rh2 and UDP-glucose (Rg3) [1]: can all catalyze the extension of a glucosyl at the C-3 glycosyl of Rh2 to generate Rg3
product formation from Rd and UDP-xylose (replacement of second glucose at C-3 with xylose) [2]: can all catalyze the replacement of the second glucose at C-3 position of Rd with xylose

B2: GT29-34: Ginseng UDP-glycosyltransferase, 446 amino acids, SEQ ID NO: 8 (protein)
chain: MDIEKGRIIIVMLPFLAHGHISPFFELAKHLSKRNCNIFLCSTPINLSSIKNRVSDKDSSASIKLVELHLPSSPDLPPHYHTTNGLPSHLMVPLRNAFETAAPTFSEILKTLNPDLLIYDFNPSWAPEIASSHNIPAVYFLTSAAATSSMGLHAFKNSGEKYPFPDFYDNSNITPEPPSADKMKLFHDFVACFKRSCDIILIKSFRELEGKYIDFLSTLSKKTLVPVGPLVQDPMGHDEDPKTGHLINWLDKRAESTVVFVCFGSEYFPSNEELEELAIGLEISMVSFILAVRFPEGEKKGILPEGFVQRVGDRGLVVEGWAPQARILGHSSTGGFVSHCGWSSIMESVKFGVPVIAMARHLDQPLNAKLAAEVGVGMEVMRDENGKYKREGIAEVIRKVVVEKSGEVMRRKARELSEKMKEKGEEEIDRAVEELVQICKKKKDAQ
modifications: misc_feature - GT29-34; Panax ginseng
product formation from Rd and UDP-glucose (Rb1) [3]: can catalyze the formation of Rb1
product formation from CK and UDP-glucose (Gypenoside LXXV) [4]: can catalyze the formation of a new product
product formation from CK and UDP-arabinose (Ginsenoside F3) [5]: can catalyze the first glycosyl of C-20 of CK to extend an arabinosyl to generate Ginsenoside F3

B3: GT29-42: Ginseng UDP-glycosyltransferase, 444 amino acids, SEQ ID NO.: 94 (protein)
chain: MDNQEGRISIALLPFLAHGHISPFFELAKQLAKRNCNVFLCSTPINLSSIKNKDSSASIKLVELHLPSSPDLPPHYHTTNGLPSHLMVPLINAFETAGPTFSEILKTLNPDLLIYDFNPSWAPEIASSHNIPAVYFLTTAAASSSIGLHAFKNPGEKYPFPDFYDNSNNTPEPPSADNMKLLHDFIACFERSCDIILIKSFIELEGKYIDLLSTLSDKTLVPVGPLVQDPMGHNEDPKTEQIINWLDKRAESTVVFVCFGSEYFLSNEELEEVAIGLEISMVNFIWAVRLIEGEKKGVLPEGFVQRVGDRGLVVEGWAPQARILGHSSTGGFVSHCGWSSIMESVKFGVPVIAMARHLDQPLNAKLAAEVGVGMEVMRDENGKYKREAIAEVIRKVVMEKNGEVMRRKARELSEKMKVKGEQEIGRAVEELVQICKKKKQHAQY
modifications: Panax ginseng
product formation from Rh2 and UDP-glucose (Rg3) [1]: can all catalyze the extension of a glucosyl at the C-3 glycosyl of Rh2 to generate Rg3
product formation from Rd and UDP-xylose (replacement of second glucose at C-3 with xylose) [2]: can all catalyze the replacement of the second glucose at C-3 position of Rd with xylose

B4: GT29-23: Ginseng UDP-glycosyltransferase, 442 amino acids, SEQ ID NO: 124 (protein)
chain: MDNQEGRISIALLPFLAHGHISPFFELAKQLAKRNCNVFLCSTPINLSSIKNKDSSASIKLVELHLPSSPDLPPHYHTTNGLPSHLMVPLINAFETAGPTFSEILKTLNPDLLIYDFNPSWAPEIASSHNIPAVYFLTTAAASSSIGLHAFKNPGEKYPFPDFYDNSNNTPEPPSADNMKLLHDFIACFERSCDIILIKSFIELEGKYIDLLSTLSDKTLVPVGPLVQDPMGHNEDPKTEQIINWLDKRAESTVVFVCFGSEYFLSNEELEEVAIGLEISMVNFIWAVRLIEGEKKGVLPEGFVQRVGDRGLVVEGWAPHARILGHSSTGGFVSHCGWSSIAESMKFGVPVIAMARHLDQPLNGKLAAEVGVGMEVVRDENGKYKREGIAEVIRKVVVEKSGEVMRRKARELSEKMKEKGEEEIDRAVEELVQICKKKKDAQ
modifications: misc_feature - GT29-23; Panax ginseng
product formation from Rh2 and UDP-glucose (Rg3) [1]: can all catalyze the extension of a glucosyl at the C-3 glycosyl of Rh2 to generate Rg3
product formation from Rd and UDP-xylose (replacement of second glucose at C-3 with xylose) [2]: can all catalyze the replacement of the second glucose at C-3 position of Rd with xylose

B5: GT29-37: Ginseng UDP-glycosyltransferase, 442 amino acids, SEQ ID NO.: 92 (protein)
chain: MDNQEGRISIALLPFLAHGHISPFFELAKQLAKRNCNVFLCSTPINLSSIKNKDSSASIKLVELHLPSSPDLPPHYHTTNGLPSHLMVPLINAFETAGPTFSEILKTLNPDLLIYDFNPSWAPEIASSHNIPAVYFLTTAAASSSIGLHAFKNPGEKYPFPDFYDNSNITPEPPSADNMKLLHDFIACFERSCDIILIKSFRELEGKYIDLLSTLSDKTLVPVGPLVQDPMGHNEDPKTEQIINWLDKRAESTVVFVCFGSEYFLSNEELEEVAIGLEISTVNFIWAVRLIEGEKKGILPEGFVQRVGDRGLVVEGWAPQARILGHSSTGGFVSHCGWSSIAESMKFGVPVIAMARHLDQPLNGKLAAEVGVGMEVVRDENGKYKREGIAEVIRKVVVEKSGEVIRRKARELSEKMKEKGEQEIDRALEELVQICKKKKDEQ
modifications: Panax ginseng
product formation from Rh2 and UDP-glucose (Rg3) [1]: can all catalyze the extension of a glucosyl at the C-3 glycosyl of Rh2 to generate Rg3
product formation from Rd and UDP-xylose (replacement of second glucose at C-3 with xylose) [2]: can all catalyze the replacement of the second glucose at C-3 position of Rd with xylose

B6: GT29-36: Ginseng UDP-glycosyltransferase, 442 amino acids, SEQ ID NO.: 90 (protein)
chain: MDNQKGRISIALLPFLAHGHISPFFELAKQLAKRNCNVFLCSTPINLSSIKDKDSSASIKLVELHLPSSPDLPPHYHTTNGLPSHLMLPLRNAFETAGPTFSEILKTLNPDLLIYDFNPSWAPEIASSHNIPAVYFLTTAAASSSIGLHAFKNPGEKYPFPDFYDNSNITPEPPSADNMKLLHDFIACFERSCDIILIKSFRELEGKYIDLLSTLSDKTLVPVGPLVQDPMGHNEDPKTEQIINWLDKRAESTVVFVCFGSEYFLSNEELEEVAIGLEISMVNFIWAVRLIEGEKKGVLPEGFVQRVGDRGLVVEGWAPQARILGHSSTGGFVSHCGWSSIAESMKFGVPVIAMARHLDQPLNGKLAAEVGVGMEVVRDENGKYKREGIAEVIRKVVVEKSGEVMRRKARELSEKMKEKGEEEIDRAVEELVQICKKKKDAQ
modifications: Panax ginseng
product formation from Rh2 and UDP-glucose (Rg3) [1]: can all catalyze the extension of a glucosyl at the C-3 glycosyl of Rh2 to generate Rg3
product formation from Rd and UDP-xylose (replacement of second glucose at C-3 with xylose) [2]: can all catalyze the replacement of the second glucose at C-3 position of Rd with xylose

B7: GT29-25: Ginseng UDP-glycosyltransferase, 446 amino acids, SEQ ID NO: 30 (protein)
chain: MDNQKGRISIVMLPFLAHGHISPFFELAKHLSKRNCNIFLCSTPINLSSIKNRISDKDSSASIKLVELHLPSSPDLPPHYHTTNGLPSHLMVPLRNAFETAAPTFSEILKTLNPDLLIYDFNPSWAPEIASSHNIPAVCFIIGGAASFSMSLHSFKNPGEKYPFLDFDDNSNITPEPPSADNMKLLLDFMTCFERSCDIILIKSFRELEGKYFDFYSTLSDKTLVPVGPLVQDPMGHNEDPKTEQFINWLDKRAESTVVFVCFGSEYFLSNEELEEVAIGLEISMVNFIWAVRLIEGEKKGVLPEGFVQRVGDRGLVVEGWAPQARILGHSSTGGFVSHCGWSSITESMKFGVPVIAMARHFDQPLNAKLAAEVGVGTEVVRDENGKYKREDIAGVIRKVVVEKSGEVIRRKARELSEKMKEIGEQLIDRAVEELVQICKKKKDEQ
modifications: misc_feature - GT29-25; Panax ginseng
product formation from Rh2 and UDP-glucose (Rg3) [1]: catalyze the production of ginsenoside Rg3
product formation from Rg1 and UDP-xylose (notoginsenoside R1) [6]: can catalyze the formation of Notoginsenoside RI
product formation from F2 and UDP-glucose (Rd) [7]: can further catalyze the extension of a glucosyl at the C-3 glycosyl of F2 to produce ginsenoside Rd

B8: GT29-33: Ginseng UDP-glycosyltransferase, 448 amino acids, SEQ ID NO: 6 (protein)
chain: MDIEKGRISIVMLPFLAHGHISPFFELAKHLSKRNCNIFLCSTPINLSSIKNRVSDKDSSASIKLVELHLPSSPDLPPHYHTTNGLPSHLMVPLRNAFETAAPTFSEILKTLNPDLLIYDFNPSWAPEIASSHNIPAVYFLTSAAATSSMGLHAFKNSGEKYPFPDFYDNSNITPEPPSADKMKLFHDFVACFKRSCDIILIKSFRELEGKYIDFLSTLSKKTLVPVGPLVQDPMGHDEDPKTGHLINWLDKRAESTVVFVCFGSEYFPSNEELEELAIGLEISMVSFILAVRFPEGEKKGILPEGFVQRVGDRGLVVEGWAPQSRILGHSSTGGFVSHCGWSSIMESVKFGVPVIAMARHLDQPLNAKLAAEVGVGMEVMRDENGKYKREAIAEVIRKVVMEKNGEVMRRKARELSEKMKVKGEQEIGRAVEELVQICKKKKQHAQY
modifications: misc_feature - GT29-33; Panax ginseng
product formation from Rd and UDP-glucose (Rb1) [3]: can catalyze the formation of Rb1
product formation from CK and UDP-arabinose (Ginsenoside F3) [5]: can catalyze the first glycosyl of C-20 of CK to extend an arabinosyl to generate Ginsenoside F3
